Here are results for ten molecules from US20210246218A1 (LYVGEN BIOPHARMA SUZHOU, published 2021).

As usually defined, the Kd is a measure of binding affinity in units of concentration. High values mean a looser complex, low ones a tighter complex. A word on the koff: it is the rate constant with which the complex falls apart. For orientation: kon means the rate constant with which the complex forms. A low value points to slower complex formation. By EC50 is commonly meant the concentration giving half of the maximal effect.

B1: humanized anti-CD137 antibody clone 3712 (IgG4 S228P/kappa) (antibody, V domains shown)
VH: QVQLVQSGAEVKKPGASVKVSCKASGYTFAGFEMHWVRQAPGQGLEWMGAIDPKTGGTDYNQKFKDRVTMTRDTSISTAYMELSRLRSDDTAVYYCARDLGYFDVWGQGTLVTVSS
VL: DIQMTQSPSSLSASVGDRVTITCRASQDIRSNLNWYQQKPGGAVKLLIYYTSRLHSGVPSRFSGSGSGTDYTLTISSLQPEDFATYFCQQSEKLPRTFGGGTKVEIRR
B2: reference antibody 371 (murine/human chimeric) (antibody, V domains shown)
VH: QVQLQQSGAELVRPGASVTLSCKASGYTFAGFEMHWIKQTPVHGLGWIGAIDPKTGGTDYNQKFKDKALLTADKSSNTAYMELRSLTSEDSAVYYCTRDLGYFDVWGTGTTVTVSS
VL: DIQMTQTTSSLSASLGDRVTISCRASQDIRSNLNWYQQKPDGTVKLLIYYTSRLHSGVPSRFSGSGSGTDYSLTISNLEQEDIATYFCQQSEKLPRTFGGGTKLEIRR
B3: humanized anti-CD137 antibody clone 3715 (IgG4 S228P/kappa) (antibody, V domains shown)
VH: B1 VH with K12V, E46G, R72A, A97T
VL: B1 VL
B4: humanized anti-CD137 antibody clone 3717 (IgG4 S228P/kappa) (antibody, V domains shown)
VH: B1 VH with K12V, V20L, V37I, E46G, M48I, V68A, M70L, R72A, A97T
VL: B1 VL with G42K, V44P, Y71F, F87Y
B5: humanized anti-CD137 antibody clone 3718 (IgG4 S228P/kappa) (antibody, V domains shown)
VH: B1 VH with K12V, V20L, V37I, E46G, M48I, V68A, M70L, R72A, A97T
VL: B1 VL
B6: humanized anti-CD137 antibody clone 3716 (IgG4 S228P/kappa) (antibody, V domains shown)
VH: B1 VH with K12V, E46G, R72A, A97T
VL: B1 VL with V104L
B7: humanized anti-CD137 antibody clone 3719 (IgG4 S228P/kappa) (antibody, V domains shown)
VH: B1 VH with K12V, V20L, V37I, E46G, M48I, V68A, M70L, R72A, A97T
VL: B1 VL with V104L
B8: humanized anti-CD137 antibody clone 3711 (IgG4 S228P/kappa) (antibody, V domains shown)
VH: B1 VH
VL: B1 VL with G42K, V44P, Y71F, F87Y
B9: humanized anti-CD137 antibody clone 3714 (IgG4 S228P/kappa) (antibody, V domains shown)
VH: B1 VH with K12V, E46G, R72A, A97T
VL: B1 VL with G42K, V44P, Y71F, F87Y
B10: humanized anti-CD137 antibody clone 3713 (IgG4 S228P/kappa) (antibody, V domains shown)
VH: B1 VH
VL: B1 VL with V104L

Where a chain is given by its changes, count along the chain named. In names and notes the source's numbering stands.

The first experiment deals with T1, CD137 protein (UniProt Q07011 24-186, limits assumed).
T1 construct: also called CD137 antigen; CD137 receptor
Nature of the experiment: BLI (Octet Red 96); reference apparently the parental chimeric antibody 371. Here is the method: (§1) The chimeric and humanized antibodies were tested in an antigen binding assay on Octet Red 96 to estimate binding kinetics. Antibodies were loaded onto anti-human Fc (AHC) biosensors. Loaded sensors were dipped into a serial dilution of CD137 protein (300 nM, 1:3 down, 7 points) in assay buffer (PBS with 0.1% BSA, 0.02% Tween-20 (pH 7.2)).
On to B1, for which the fold higher off-rate amounted to 3 fold.

For a further experiment, the target named is T1, CD137 protein. The experiment is described as follows: BLI (Octet Red 96), antibody on anti-human Fc sensors, CD137 protein in solution, 1:1 model. Here is the method: KD Measurements of CD137 Antigen Binding were made according to the protocol described in Example 2 above. The chimeric and humanized antibodies were tested in an antigen-binding assay on Octet Red 96 to estimate binding kinetics. Antibodies were loaded onto anti-human Fc (AHC) biosensors. Loaded sensors were dipped into a serial dilution of CD137 protein (300 nM, 1:3 down, 7 points) in assay buffer (PBS with 0.1% BSA, 0.02% Tween-20 (pH 7.2)).
B2 displayed a Kd of 3.9 nM, a koff of 0.0011 s⁻¹ and a kon of 280000 M⁻¹ s⁻¹.
B3: the Kd stood at 5.9 nM, the koff was found to be 0.0018 s⁻¹ and the kon came out at 310000 M⁻¹ s⁻¹.
Consider B4, for which the Kd was found to be 2.3 nM, the koff was found to be 0.00034 s⁻¹ and the kon amounted to 150000 M⁻¹ s⁻¹.
B5 came in with a Kd of 8.3 nM, a koff of 0.0026 s⁻¹ and an on-rate (kon) of 310000 M⁻¹ s⁻¹.
The molecule B6 had a Kd of 7 nM, a koff of 0.0022 s⁻¹ and a kon of 320000 M⁻¹ s⁻¹.
For the molecule B7, the Kd is 8.5 nM, the koff is 0.0026 s⁻¹ and the kon was 310000 M⁻¹ s⁻¹.
Turning to B1, the affinity, expressed as Kd, was 10 nM; the koff was 0.0031 s⁻¹; the kon stood at 310000 M⁻¹ s⁻¹.
B8 returned a Kd of 2.5 nM, a koff of 0.00046 s⁻¹ and a kon of 190000 M⁻¹ s⁻¹.
Consider B9, for which the koff was < 1e-07 s⁻¹ and the kon came to 130000 M⁻¹ s⁻¹.
In turn, B10 had a Kd of 3.8 nM, a koff of 0.0011 s⁻¹ and a kon of 290000 M⁻¹ s⁻¹.

The target in the next experiment is T1, CD137 protein. Nature of the experiment: competition ELISA with CD137L: CD137 receptor coated, antibody titrated, CD137L added; A450-A620 falls with the antibody concentration (midpoint of an inhibition curve, called EC50 in the sheet's table). As for the experimental part:
CD137 receptor was diluted in DPBS to 1 μg/mL, and then coated onto an ELISA plate (Corning, Catalog number: 9018, high binding) with a volume of 50 μL (0.05 μg) per well, and incubated at 4° C. overnight. The plate was decanted and washed once; assay diluent was added 200 μL/well. […] The diluted CD137 receptor was added to the assay plate, 50 μL/well, in duplicate. The plate was incubated one hour at room temperature. […] The plate was incubated one hour at room temperature and then washed three times with PBST. Goat anti-human IgG-H+L HRP conjugated at 1:100,000 20 dilution was added to the plate at 100 μL/well. The plate was then incubated one hour at room temperature followed by washing with PBST four times. The TMB substrate solution was added at 100 μL/well. The color was allowed to develop for 15 minutes, and was stopped with 100 μL/well 2N H2SO4. Absorbance at 450 nm and 620 nm was determined by a Tecan F200 Pro reader.
(An ELISA detects its analyte on a solid surface through an enzyme-linked reagent.)
Turning to B2, the EC50 amounted to 0.101 µg/mL.

For the next experiment, the target named is T1, CD137 protein. Nature of the experiment: BLI (Octet Red 96), antibody on anti-human Fc sensors, CD137 protein in solution, 1:1 model. This is another data set of the same source. Here is the method: as §1
Background: BLI is a label-free optical method that tracks binding on a fibre tip over time.
Molecule B2 yielded a Kd of 3.9 nM, a koff of 0.0011 s⁻¹ and a kon of 280000 M⁻¹ s⁻¹.
For B1 the same measures were 10 nM, 0.0031 s⁻¹ and 310000 M⁻¹ s⁻¹.
For B8 the same measures were 2.4 nM, 0.00046 s⁻¹ and 190000 M⁻¹ s⁻¹.
